Legend:
mABCA1 promoter = test: NHR-promoter luciferase screen, mABCA1 promoter; type: cell-based, mouse; settings: for Luc. act., normalized to lacZ / Normalized Luc. act., normalized to control: ABCA1 promoter, hormone receptor with or without its ligand; for Normalized Luc. act., normalized to control: relative to control; for mABCA1 promoter reporter activity: transcription factor +/- ligand, control = 1.00
Description: (§1) The use, feasibility, and reproducibility of the functional NHR-promoter screen in a 48-well format have been tested validated. Briefly, there were co-expressed 50 ng of each NHR/NHR homodimer or NHR/RXR heterodimer with 100 ng promoter/luciferase construct and 50 ng of LacZ (as a control for transfection efficiency) in CV-1 cells using Fugene HD (Roche) as a transfection reagent (alternatively or additionally, a CMV-YFP construct can be used as a transfection control). Each of the nuclear hormone receptors that were used in these experiments was cloned into a pcDNA3.1 vector and comprised a C-terminally linked V5H6 tag. Twenty-four hours after transfection, appropriate ligands were added, where applicable, (see Table 5 for various ligands and concentrations and after 48 hrs, samples were assayed for luciferase and LacZ activity. To measure for luciferase activity 15 ul of sample was added to 30 ul of luciferase buffer (20 mM tricine, 1.07 mM MgCarbonate, 2.67 mM MgSulfate, 0.1 mM Naz-EDTA, 5 mM DTT, 5 mM ATP, 0.15 mg/ml CoA, 0.5 mM Luciferin), mixed briefly, and run in a Perkin Elmer Victor 5 luminometer. Thus, the functional NHR-promoter screen was used to observe the transcriptional activity of 29 promoters from various physiological pathways including inflammation, lipid and sugar metabolism, cholesterol transport, xenobiotic metabolism, and circadian rhythm.
(§2) The promoters that facilitate transcription of the indicated gene products that were tested using the protocols described herein are listed in the first row of the table. The nuclear hormone receptors and, where applicable, ligands that were assayed for their transcriptional effects on the promoters are listed in the first column of the table. The data represent the luciferase activity of each sample normalized to both the lacZ activity of that sample and to a control, e.g., no NHR or ligand, as customary in the art. As described previously, these normalizations allow the transcriptional activity of each reporter cell to be compared to other samples.
(§3) Tables 7-40 show the transcriptional effects of the hormone receptors, and, where applicable, ligands (orphan receptors are screened without ligand), on each individual promoter. […] The control data of each table are shown in their last rows.

Bmal1 promoter = test: NHR-promoter luciferase screen, Bmal1 promoter; type: cell-based, mouse; settings: for Luc. act., normalized to lacZ / Normalized Luc. act., normalized to control: Bmal1 promoter, HR component without or with ligand; for mBmal1 promoter reporter activity: transcription factor +/- ligand, control = 1.00; for regulation of the Bmal1 promoter: FIG. 2c, in words
Description: as §1, §2, §3

hPPARg2 promoter = test: NHR-promoter luciferase screen, hPPARg2 promoter; type: cell-based, human; settings: for Luc. act., normalized to lacZ / Normalized Luc. act., normalized to control: PPARG2 promoter, hormone receptor with or without its ligand; for Normalized Luc. act., normalized to control: relative to control; for Results of assays of transcription factor (+/- ligand) with hPPARg2: Table 6d, luciferase activity relative to control (control = 1.00)
Description: as §1, §2, §3

mNPY promoter = test: NHR-promoter luciferase screen, mNPY promoter; type: cell-based, mouse; settings: for Results of assays of transcription factor (+/- ligand) with mNPY: Table 6d, luciferase activity relative to control (control = 1.00); for Luc. act., normalized to lacZ / Normalized Luc. act., normalized to control: mNPY promoter, HR component with or without ligand; for Normalized Luc. act., normalized to control: relative to control
Description: as §1, §2, §3

hTNFa promoter = test: NHR-promoter luciferase screen, hTNFa promoter; type: cell-based, human; settings: for Luc. act., normalized to lacZ / Normalized Luc. act., normalized to control: TNFa promoter, HR component without or with ligand; for hTNFa promoter reporter activity: transcription factor +/- ligand, control = 1.00
Description: as §1, §2, §3

hG6PD promoter = test: NHR-promoter luciferase screen, hG6PD promoter; type: cell-based, human; settings: for Luc. act., normalized to lacZ / Normalized Luc. act., normalized to control: G6PD promoter reporter, co-transfected HR, without or with its ligand; for Normalized Luc. act., normalized to control: relative to control; for luciferase activity normalized to lacZ activity and to a control, hG6PD: hG6PD promoter-luciferase, CV-1 cells, NHR +/- ligand, control = 1.00
Description: as §1, §2, §3

Row | Molecule | Luc. act., normalized to lacZ (mABCA1 promoter) | Normalized Luc. act., normalized to control (mABCA1 promoter) | mABCA1 promoter reporter activity (mABCA1 promoter) | Luc. act., normalized to lacZ (Bmal1 promoter) | Normalized Luc. act., normalized to control (Bmal1 promoter) | mBmal1 promoter reporter activity (Bmal1 promoter) | Luc. act., normalized to lacZ (hPPARg2 promoter) | Normalized Luc. act., normalized to control (hPPARg2 promoter) | Results of assays of transcription factor (+/- ligand) with hPPARg2 (hPPARg2 promoter) | Results of assays of transcription factor (+/- ligand) with mNPY (mNPY promoter) | Luc. act., normalized to lacZ (mNPY promoter) | Normalized Luc. act., normalized to control (mNPY promoter) | Luc. act., normalized to lacZ (hTNFa promoter) | Normalized Luc. act., normalized to control (hTNFa promoter) | hTNFa promoter reporter activity (hTNFa promoter) | Luc. act., normalized to lacZ (hG6PD promoter) | Normalized Luc. act., normalized to control (hG6PD promoter) | luciferase activity normalized to lacZ activity and to a control, hG6PD (hG6PD promoter) | regulation of the Bmal1 promoter (Bmal1 promoter)
1 | RXRa: Retinoic X Receptor α (NR2B1), cDNA driver | 8.7 | 1.6 | 1.56 | 11.8 | 0.8 | 0.75 | 1.3 | 0.7 | 0.67 | 0.95 | 80.0 | 1.0 | 954.8 | 1.0 | 0.97 | 45.6 | 1.2 | 1.22 | –
2 | RORa: RAR-related Orphan Receptor α (NR1F1), cDNA driver (protein, UniProt P35398 1-523, looked up) Nuclear receptor ROR-alpha: MESAPAAPDPAASEPGSSGADAAAGSRETPLNQESARKSEPPAPVRRQSYSSTSRGISVTKKTHTSQIEIIPCKICGDKSSGIHYGVITCEGCKGFFRRSQQSNATYSCPRQKNCLIDRTSRNRCQHCRLQKCLAVGMSRDAVKFGRMSKKQRDSLYAEVQKHRMQQQQRDHQQQPGEAEPLTPTYNISANGLTELHDDLSNYIDGHTPEGSKADSAVSSFYLDIQPSPDQSGLDINGIKPEPICDYTPASGFFPYCSFTNGETSPTVSMAELEHLAQNISKSHLETCQYLREELQQITWQTFLQEEIENYQNKQREVMWQLCAIKITEAIQYVVEFAKRIDGFMELCQNDQIVLLKAGSLEVVFIRMCRAFDSQNNTVYFDGKYASPDVFKSLGCEDFISFVFEFGKSLCSMHLTEDEIALFSAFVLMSADRSWLQEKVKIEKLQQKIQLALQHVLQKNHREDGILTKLICKVSTLRALCGRHTEKLMAFKAIYPDIVRLHFPPLYKELFTSEFEPAMQIDG | 33.0 | 5.9 | 5.87 | 115.6 | 7.4 | 7.40 | 8.4 | 4.2 | 4.19 | 0.90 | 75.4 | 0.9 | 607.5 | 0.6 | 0.62 | 74.0 | 2.0 | 1.98 | specific activation
3 | LXRb: Liver X Receptor β (NR1H2), cDNA driver (protein, UniProt P55055 1-460, looked up) Oxysterols receptor LXR-beta: MSSPTTSSLDTPLPGNGPPQPGAPSSSPTVKEEGPEPWPGGPDPDVPGTDEASSACSTDWVIPDPEEEPERKRKKGPAPKMLGHELCRVCGDKASGFHYNVLSCEGCKGFFRRSVVRGGARRYACRGGGTCQMDAFMRRKCQQCRLRKCKEAGMREQCVLSEEQIRKKKIRKQQQESQSQSQSPVGPQGSSSSASGPGASPGGSEAGSQGSGEGEGVQLTAAQELMIQQLVAAQLQCNKRSFSDQPKVTPWPLGADPQSRDARQQRFAHFTELAIISVQEIVDFAKQVPGFLQLGREDQIALLKASTIEIMLLETARRYNHETECITFLKDFTYSKDDFHRAGLQVEFINPIFEFSRAMRRLGLDDAEYALLIAINIFSADRPNVQEPGRVEALQQPYVEALLSYTRIKRPQDQLRFPRMLMKLVSLRTLSSVHSEQVFALRLQDKKLPPLLSEIWDVHE | 46.3 | 8.3 | 8.25 | 17.4 | 1.1 | 1.11 | 2.4 | 1.2 | 1.19 | 0.81 | 68.0 | 0.8 | 866.1 | 0.9 | 0.88 | 46.8 | 1.3 | 1.25 | –
4 | HNF4a: Hepatocyte Nuclear Factor α (NR2A1), cDNA driver (protein, UniProt P41235 1-474, looked up) Hepatocyte nuclear factor …: MRLSKTLVDMDMADYSAALDPAYTTLEFENVQVLTMGNDTSPSEGTNLNAPNSLGVSALCAICGDRATGKHYGASSCDGCKGFFRRSVRKNHMYSCRFSRQCVVDKDKRNQCRYCRLKKCFRAGMKKEAVQNERDRISTRRSSYEDSSLPSINALLQAEVLSRQITSPVSGINGDIRAKKIASIADVCESMKEQLLVLVEWAKYIPAFCELPLDDQVALLRAHAGEHLLLGATKRSMVFKDVLLLGNDYIVPRHCPELAEMSRVSIRILDELVLPFQELQIDDNEYAYLKAIIFFDPDAKGLSDPGKIKRLRSQVQVSLEDYINDRQYDSRGRFGELLLLLPTLQSITWQMIEQIQFIKLFGMAKIDNLLQEMLLGGSPSDAPHAHHPLHPHLMQEHMGTNVIVANTMPTHLSNGQMCEWPRPRGQAATPETPQPSPPGGSGSEPYKLLPGAVATIVKPLSAIPQPTITKQEVI | 10.7 | 1.9 | 1.90 | 10.1 | 0.6 | 0.65 | 2.0 | 1.0 | 1.02 | 0.52 | 43.5 | 0.5 | 852.9 | 0.9 | 0.87 | 34.8 | 0.9 | 0.93 | –
5 | RORg: RAR-related Orphan Receptor γ (NR1F3), cDNA driver (protein, UniProt P51449 1-518, looked up) Nuclear receptor ROR-gamma: MDRAPQRQHRASRELLAAKKTHTSQIEVIPCKICGDKSSGIHYGVITCEGCKGFFRRSQRCNAAYSCTRQQNCPIDRTSRNRCQHCRLQKCLALGMSRDAVKFGRMSKKQRDSLHAEVQKQLQQRQQQQQEPVVKTPPAGAQGADTLTYTLGLPDGQLPLGSSPDLPEASACPPGLLKASGSGPSYSNNLAKAGLNGASCHLEYSPERGKAEGRESFYSTGSQLTPDRCGLRFEEHRHPGLGELGQGPDSYGSPSFRSTPEAPYASLTEIEHLVQSVCKSYRETCQLRLEDLLRQRSNIFSREEVTGYQRKSMWEMWERCAHHLTEAIQYVVEFAKRLSGFMELCQNDQIVLLKAGAMEVVLVRMCRAYNADNRTVFFEGKYGGMELFRALGCSELISSIFDFSHSLSALHFSEDEIALYTALVLINAHRPGLQEKRKVEQLQYNLELAFHHHLCKTHRQSILAKLPPKGKLRSLCSQHVERLQIFQHLHPIVVQAAFPPLYKELFSTETESPVGLSK | 29.4 | 5.2 | 5.23 | 58.9 | 3.8 | 3.77 | 19.2 | 9.6 | 9.59 | 0.91 | 76.5 | 0.9 | 1152.0 | 1.2 | 1.17 | 81.5 | 2.2 | 2.18 | specific activation

Reference: patent publication US20110263454A1, “Methods of Identifying Functional Characteristics of Promoters, Transcription Modifying Proteins and Transcription Modulating Agents” (Salk Institute for Biological Studies, priority 2008, published 2011)
